Target: FUBP1-strep (UniProt Q96AE4 1-644)
Assay: EMSA; EMSA: 10 mM Tris pH 7.5, 140 mM KCl, 10 mM NaCl, 1 mM MgCl2, 10% glycerol, 1 mM DTT, RNase inhibitor 1 U/ul, room temperature 30 min; probe 20 nM (Fig. 3A) or 10 nM (Fig. 5E, S5D). Pull-down: HepG2 lysate (50 mM Tris pH 7.5, 100 mM NaCl, 1% NP-40, 0.5% deoxycholate) + tRNA 50 ug/ml, RT 30 min then 4 C 90 min; washes 10 mM Tris pH 7.5, 150 mM KCl, 1.5 mM MgCl2, 0.1% NP-40, 0.5 mM DTT
Settings: protein: recombinant; tags: C-terminal Strep-tag; label: 5' FAM

FUBP1-strep, sequence (Q96AE4 whole entry): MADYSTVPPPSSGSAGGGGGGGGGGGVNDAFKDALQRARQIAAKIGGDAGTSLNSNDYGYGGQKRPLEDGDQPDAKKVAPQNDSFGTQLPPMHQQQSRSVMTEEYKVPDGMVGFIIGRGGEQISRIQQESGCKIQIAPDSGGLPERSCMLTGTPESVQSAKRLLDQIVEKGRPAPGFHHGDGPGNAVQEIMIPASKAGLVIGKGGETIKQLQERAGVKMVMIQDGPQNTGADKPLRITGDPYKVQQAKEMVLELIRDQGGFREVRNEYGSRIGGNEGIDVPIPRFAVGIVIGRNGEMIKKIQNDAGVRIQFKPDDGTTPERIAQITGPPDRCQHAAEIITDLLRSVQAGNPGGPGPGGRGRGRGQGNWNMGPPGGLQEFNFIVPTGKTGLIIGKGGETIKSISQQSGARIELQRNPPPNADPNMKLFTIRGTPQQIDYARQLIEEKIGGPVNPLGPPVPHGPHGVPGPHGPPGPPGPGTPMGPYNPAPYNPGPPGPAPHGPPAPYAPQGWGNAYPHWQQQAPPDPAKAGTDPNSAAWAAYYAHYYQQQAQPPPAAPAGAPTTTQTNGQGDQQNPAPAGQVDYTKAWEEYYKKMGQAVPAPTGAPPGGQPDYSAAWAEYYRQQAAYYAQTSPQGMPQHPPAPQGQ

Row | Binder | binding result
1 | ACUGAACGCCUUUAAGUCAGAAUCCCACCC (ssRNA, 2'-O-methyl at G4, G16, C18, A19, C24, C25, A27) [SEC14L1 Nm] | binds
2 | CGCUGAGUGCGCUGCACUGACCUUCUUCCA (ssRNA, 2'-O-methyl, multiple sites) [SNX5 Nm] | binds
